In the supplement of paper PMC9170038:

Test system: MS2 coat protein
Assay: apparent KD of MS2 coat protein; designed switch direction (-1 OFF switch, 1 ON switch): -1; higher = weaker reporter binding
In short: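 The buffer was Tris-HCl pH 7.5 with KCl, MgCl2, BSA, DTT, tRNA and Tween-20. In it, SNAP-549-labelled MS2 coat protein was titrated in doubling steps from 0.7 or 1.5 nM to 3 µM over chip-bound RNA switches transcribed by stalled E. coli RNA polymerase on Illumina chips. Apparent KD is the per-design median over clusters of curve fits to normalised fluorescence.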

[1] = input ligand: microRNA oligo, concentration not stated
[2] = Eterna round: R95, input ligand: FMN 200 uM
[3] = Eterna round: R95, input ligand: microRNA oligo, concentration not stated
[4] = Eterna round: R95, input ligand: none

| Sequence | apparent KD of MS2 coat protein (input ligand: FMN 200 uM) [nM] | apparent KD of MS2 coat protein [1] [nM] | apparent KD of MS2 coat protein (input ligand: none) [nM] | apparent KD of MS2 coat protein [2] [nM] | apparent KD of MS2 coat protein [3] [nM] | apparent KD of MS2 coat protein [4] [nM] |
| --- | --- | --- | --- | --- | --- | --- |
| CCCAGUUAGUGAGGAUAUCUUACAUGAGGAUCACCCAUGUAAUAAAUGAGGAUUUCGGGUGUCUAAGAGAAGGCACGGAUAGGC [Ostracism 25 - Jieux - Exclusion NG 2] (Eterna round: R96, puzzle: Exclusion NG 2) | 27.1 | 16.7 | 27 | – | – | – |
| GCACGCAAAGGAUAUCGGAAAGAAAACAUGAGGAUCACCCAUGUAUAUAUCAAAUGGGUGCGAGAAGGUUGAGUGA [Xeleonge] (puzzle: Exclusion 5) | – | – | – | 192 | 60 | 94 |
| UUAUUUUUUGAGGAUAUGCGACGUUUUUUCGUCGUAGAAGGCGAUACAUGAGGAUCACCCAUGUUUAUGGGCAU [LRO-Ex6-13] (puzzle: Exclusion 6) | – | – | – | – | 73.8 | – |
| CAGCUGUCAGGAUAUCGUGCAUACAACGAAAGUUCUAUGUGCGAGAAGGGACAUGAGGAUCACCCAUGUAAACG [Omei Ex4 A26] (Eterna round: R97, puzzle: Exclusion 4) | 101 | – | 57.4 | – | – | – |
| AGAAAGCAAGGAUAUACGAGGAGAAGGUGGAAAGUUAAAGGACAUGAGGAUCACCCAUGUAGAAGGUGCGAGAA [JR_Exclu2_Sub043] (puzzle: Exclusion 2) | – | – | – | 79.3 | 46.2 | 55.4 |
| GAUCUGACAGGAUAUACAUGAGGAUCACCCAUGUACGAGCUAGCGAAAGCUAGCUCAGGUAGAAGGGUCAGAUC [Ex3 dot plot directed v5] (puzzle: Exclusion 3) | – | – | – | – | 11.6 | – |
| AAGUAGGCAGGAUAUACAUGAGGAUCACCCAUGUGCCUAUACAAGGUAAUCUUGGGAGGUAGAAGGGCCUACAA [ChP 13.04.2015 #3] (puzzle: Exclusion 3) | – | – | – | – | 33 | – |
| GCCCGGGCAGGAUAUACAAUGAUCGUGAGAAAUCGUGAUCGACAUGAGGAUCACCCAUGUAGAAGGGCCCGGGC [-34.5, -32.3 kcal, A 28% 2] (Eterna round: R97, puzzle: Exclusion 2) | 116 | – | 50.5 | – | – | – |
| CUAUUUUUCGCAGGAUAUGCAUCUCCUUUAUUAGCAGAAGGGCGUUAAACAUGAGGAUCACCCAUGUAUUGUGGUGCUUUUUUC [JR_ExcNG1_Sub059] (Eterna round: R96, puzzle: Exclusion NG 1) | 214 | 54.3 | 57.9 | – | – | – |
| GUCAGCUCGUGAGGAUAUACAUGAGGAUCACCCAUGUGAUCAAUAGCAGCUUCGGCUGCAUACAUGUAGAAGGCACGAGCUGAC [ENG2/6-A1] (Eterna round: R96, puzzle: Exclusion NG 2) | 22.4 | 19.7 | 28.5 | – | – | – |
| CCUCAUGGGCAGGAUAUCAGUCGAAAGUUUAUAUGAGAAGGGCCAACAUGAGGAUCACCCAUGUAAUCCCUGAC [EX6 C.14] (Eterna round: R97, puzzle: Exclusion 6) | 66.7 | – | 27.8 | – | – | – |
| UAUUAACAGGCAAGAUCCCACAUGAGGAUCACCCAUGUGCUCGUCUUAUAAGGUACUGUGACGAAAGUCACGGUACC [Sensor 3, v1 - 82] (puzzle: Sensor v3, turn-off variant 1) | – | – | – | 23.2 | 589 | 29.4 |
| UUUUUAGUGCUUUUUAAGUACAUGAGGAUCACCCAUGUACUUGUCUGGUGGUCCGGACAAGCUUUUUGCUCGUCUAA [Sensor v3 - turn-off variant 1 - 1] (puzzle: Sensor v3, turn-off variant 1) | – | – | – | 48.9 | 33 | 59.7 |
| UUUGUAUAUGAAGGAUAUACUUAACAUGAGGAUCACCCAUGUGGUGUUGUGAGUGAGUGAGUUUAGUAGAAGGUCAAUUCUUUU [JMF's solution 92] (Eterna round: R96, puzzle: Exclusion NG 2) | 651 | 417 | 434 | – | – | – |
| GAUCAGUAAGGAUAUACAUGAGGAUCACCCAUGUGGAUGGCCGCGCAUUUCCAUUCAGGUAGAAGGUACUGAGU [Eternabot (L1) Solution 94] (Eterna round: R97, puzzle: Exclusion 3) | 54.3 | – | 36.8 | – | – | – |
| UGGUAACAUGAGGAUCACCCAUGUCAGGAUAUCAGUAAGAAUAGAUGAGAGUAGAAGAUGAGAAGGGACUAUAU [Excluse me! 7 - Jieux - Exclusion 1] (puzzle: Exclusion 1) | – | – | – | – | 29.1 | – |
| AGUUCGCAGAGAGGAUAUAUAGGGUUACGGCCUAUAGAAGGUUCACGUUAGCCGCAACAUGAGGAUCACCCAUGUGCUCCGCGA [Eternabot solution 35] (Eterna round: R96, puzzle: Exclusion NG 1) | 27.5 | 20.9 | 29.6 | – | – | – |
| GGUUGGCGAGGAUAUACAUGAGGAUCACCCAUGUGAGAGAAAGAAGUGAGGAAGAAAAGUAGAAGGCGUUGACG [salish99_ex3_r3_053] (puzzle: Exclusion 3) | – | – | – | 50.6 | 55.4 | 71.7 |
| ACUUACUGAGGAUAUACAUAGAUUUACAUGAGGAUCACCCAUGUUCCUCUAUGUAUAAAUGUAGAAGGCAGAAGUU [Mat - Exclusion 5 - JL Mod - D56] (Eterna round: R97, puzzle: Exclusion 5) | 107 | – | 21.5 | – | – | – |
| AAUGGUAAAGUCAGGAUAUACGUAAGUCGUUCUAGGUAGAAGGGACAUGAGGAUCACCCAUGUAUGAUAGUAAA [Ex4 #33] (Eterna round: R97, puzzle: Brourd's mod of Exclusion 4) | 25.4 | – | 44.6 | – | – | – |
| AAUAACAGAGGAUAUACUGUUUUAUGUGUUUGUUAUUUUAAACAUGAGGAUCACCCAUGUAGAAGGCUGAGUAA [JMF 30] (puzzle: Exclusion 2) | – | – | – | – | 25 | – |
| AAUCCACAUGAGGAUCACCCAUGUCAGGAUAUCGCGCGCGCGGUUUCGGUCGCGCGCGCGAGAAGGGACGGCUG (puzzle: Exclusion 1) | – | – | – | – | 22.1 | – |
| GGCGAGCAAGGAUAUGCAGGGUAUCCGACUCGCAGCGGGCGACAUGAGGAUCACCCAUGUAGAAGGUGCACGCG [EX2 A.6] (Eterna round: R97, puzzle: Exclusion 2) | 23.9 | – | 31 | – | – | – |
| ACGAUGACAGAAAGAAGUCAAAAGACAUGAGGAUCACCCAUGUAGGAUAUGGCUACGAAAAGUAGUCAGAAGGACUUGUCAUCA [Omei Exc(NG) 3 Av2] (Eterna round: R96, puzzle: Exclusion NG 3) | 13.1 | 9.48 | 14.3 | – | – | – |
| UUAUUAUAUGUAGGAUAUGCGUAUUAUUGUUAUGCAGAAGGACAUGAGGAUCACCCAUGUAUAUUAUUGUUAUAUAUUAUAUAU [Title] (Eterna round: R96, puzzle: Exclusion NG 1) | 50.2 | 19.3 | 29.3 | – | – | – |
| CCGAUGUCAGGAUAUCGUGCAUACAACGAAAGUUCUAUGUGCGAGAAGGGACAUGAGGAUCACCCAUGUUACGG [Omei Ex4 A2] (Eterna round: R97, puzzle: Exclusion 4) | 131 | – | 465 | – | – | – |
